Measured values from the supplement of paper PMC9732359.
± gives the uncertainty stated by the source.

Experiment: protein stability index of a GFP-peptide fusion (yeast GPS) (PSI 1-4); higher = more stable; sorted into four equal gates, so the index is relative within each strain
Summary of the method: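 The protein stability index combines read frequencies across sorting gates, each weighted by its gate number and then summed. To obtain those frequencies, a pooled yeast library of GFP fusions to tiled 17-residue yeast protein peptides, on a plasmid also expressing Cherry, was grown to mid-log phase in leucine-free medium. The cells were sorted into four equal gates by GFP/Cherry ratio before plasmid amplification by PCR and Illumina sequencing.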

| Sequence | protein stability index (doa10∆) | protein stability index (pdr5∆) | protein stability index (san1∆) | protein stability index (ubr1∆) |
| --- | --- | --- | --- | --- |
| DEAEGRFEVINNETEQL [SMC1] | 2.07 ± 0.072 | 2.56 ± 0.076 | 3.04 ± 0.14 | 2.82 ± 0.1 |
| INLNVDDDILIIRPILG [SRB4] | 3.42 ± 0.15 | 3.07 ± 0.1 | 3.21 ± 0.059 | 3.21 ± 0.057 |
| DSVENSSNILEDILYYS [SRB8] | 2.92 ± 0.13 | 2.74 ± 0.073 | 2.5 ± 0.058 | 2.72 ± 0.059 |
| LAVSTILGKNFDSVIVE [SMC1] | 2.86 ± 0.066 | 2.59 ± 0.064 | 2.44 ± 0.056 | 2.45 ± 0.047 |
| INYHQYISKAQNDQWSI [SSN2] | 2.63 ± 0.058 | 2.83 ± 0.053 | 2.56 ± 0.051 | 2.73 ± 0.056 |
| EGVEYLREYLNLPEHIV [RPS10A] | 3.31 ± 0.081 | 3.32 ± 0.078 | 3.2 ± 0.072 | 3 ± 0.087 |
| VGPHFKQANNFLWPFKL [RPL7A] | 2.71 ± 0.069 | 3.05 ± 0.098 | 2.97 ± 0.065 | 2.93 ± 0.064 |
| SHDASRSLASFEQTAFS [SIR4] | 2.86 ± 0.065 | 2.67 ± 0.049 | 2.81 ± 0.053 | 2.67 ± 0.067 |
| LGRLVKAGKITTIEEIF [RPS2] | 2.03 ± 0.099 | 2.29 ± 0.12 | 2.16 ± 0.14 | 2.25 ± 0.12 |
| YTNSVELRSLSKKDFKI [YMR129W/POM152] | 2.41 ± 0.057 | 2.64 ± 0.058 | 2.32 ± 0.078 | 2.92 ± 0.069 |
| QLEKKIRFVCLSNCLAN [BRR2] | 1.82 ± 0.065 | 1.32 ± 0.048 | 1.31 ± 0.099 | 1.63 ± 0.045 |
| DNHSGDATANATANATA [DSN1] | 3.22 ± 0.12 | 3.08 ± 0.064 | 3.32 ± 0.089 | 3.13 ± 0.071 |
| YKEQIIQGFYWAVKEGP [SNU114] | 2.75 ± 0.088 | 2.38 ± 0.064 | 2.23 ± 0.09 | 2.38 ± 0.08 |
| SNTNDNISIITLELESF [RGR1] | 2.54 ± 0.075 | 2.39 ± 0.081 | 2.25 ± 0.098 | 2.32 ± 0.11 |
| PFKRKMLLVDIIPSRMG [REC8] | 1.81 ± 0.069 | 1.77 ± 0.072 | 2.26 ± 0.11 | 2.15 ± 0.059 |
| KDQRATTPYMTKYERAR [RPO26] | 2.56 ± 0.057 | 3.01 ± 0.051 | 2.44 ± 0.11 | 3.04 ± 0.048 |
| AGRKFKSRRCDDMLYYI [POP4] | 2.96 ± 0.094 | 3.06 ± 0.094 | 3.21 ± 0.084 | 3.04 ± 0.068 |
| IYDDWLDRISSYTAFSR [PRP8] | 2.16 ± 0.05 | 1.75 ± 0.044 | 1.92 ± 0.073 | 2.24 ± 0.039 |
| IDNGAESSENEAEDDDN [RPC53] | 3.33 ± 0.14 | 3.62 ± 0.17 | 3.15 ± 0.11 | 2.81 ± 0.16 |
| SDNNSRIMSRNFYLKRF [SWI1] | 2.73 ± 0.066 | 2.67 ± 0.079 | 2.95 ± 0.099 | 3.09 ± 0.063 |
| AKITEIGSTSKRPIESG [YIL149C/MLP2] | 3.23 ± 0.084 | 3.07 ± 0.1 | 3.14 ± 0.11 | 3.31 ± 0.059 |
| QFEKSRKVSGPRALQPS [RET1] | 2.98 ± 0.085 | 3.19 ± 0.11 | 2.94 ± 0.061 | 3.06 ± 0.066 |
| NSSNYAELFNNDIKLFV [PRP8] | 2.44 ± 0.041 | 2.48 ± 0.036 | 2.26 ± 0.048 | 2.27 ± 0.029 |
| PIPSKPTLFDLAFNYIT [SRP68] | 1.64 ± 0.051 | 1.54 ± 0.046 | 1.74 ± 0.071 | 2.02 ± 0.046 |
| QQVEGKLSQMILDKIFY [RPN6] | 2.81 ± 0.074 | 2.84 ± 0.081 | 3.01 ± 0.096 | 2.94 ± 0.062 |
| ACSSSGRETILSNFNAD [SIR3] | 2.39 ± 0.037 | 2.16 ± 0.04 | 2.44 ± 0.045 | 2.75 ± 0.042 |

| Sequence | protein stability index (doa10∆) | protein stability index (pdr5∆) | protein stability index (san1∆) | protein stability index (ubr1∆) |
| --- | --- | --- | --- | --- |
| VRSEMGEPIHKIATRGV [FAS1] | 3.14 ± 0.29 | 3.14 ± 0.28 |  | 2.95 ± 0.089 |
| LLRQKIEQCKHPLHELI [ISW2] | 1.37 ± 0.088 | 1.49 ± 0.081 | 1.45 ± 0.22 | 1.48 ± 0.12 |
| LKNVNKRAFENFKKFNE [SMC3] | 2.23 ± 0.086 | 1.95 ± 0.15 | 1.91 ± 0.094 | 1.88 ± 0.09 |
| IPNRRFTLWWSPTINRA [PRP8] | 2.65 ± 0.069 | 2.28 ± 0.065 | 1.65 ± 0.052 | 2.29 ± 0.047 |
| DDISRQVARTNLDGTKA [ROX3] | 3.12 ± 0.096 | 2.88 ± 0.091 | 3.09 ± 0.087 | 3.11 ± 0.071 |
| KGKDFEITAKEVYDFTH [FAS1] | 3.09 ± 0.059 | 3.23 ± 0.055 | 2.97 ± 0.052 | 3.05 ± 0.046 |
| KKFDISNDNLDLISEIL [MED1] | 2.77 ± 0.067 | 2.89 ± 0.058 | 2.84 ± 0.061 | 3 ± 0.049 |
| NQVGTDELILPLPSHAL [YDL116W/NUP84] | 3.09 ± 0.057 | 3.09 ± 0.045 | 2.83 ± 0.052 | 3.06 ± 0.04 |
| LMVFNDDTKNQDSMSKG [YGR119C/NUP57] | 3.04 ± 0.08 | 3.46 ± 0.16 | 2.94 ± 0.18 | 3.05 ± 0.071 |
| SAGFETDLRLSTNGLGM [SNU114] | 3.43 ± 0.1 | 3.46 ± 0.12 | 2.98 ± 0.22 | 3.13 ± 0.22 |
| SELFDEWFEQNNSEQDQ [ISW2] | 2.49 ± 0.067 | 2.54 ± 0.071 | 1.44 ± 0.14 | 1.95 ± 0.051 |
| LDDLQVILAKNENETRD [PGD1] | 3.27 ± 0.099 | 3.05 ± 0.08 | 2.93 ± 0.14 | 3.38 ± 0.078 |
| TKSMVKIAEQYSKRIEE [RPN11] | 2.32 ± 0.075 | 1.94 ± 0.052 | 2.03 ± 0.1 | 2.28 ± 0.067 |
| NGIPLKSKERSSQFVRL [YMR129W/POM152] | 2.75 ± 0.15 | 2.6 ± 0.14 | 3.22 ± 0.096 | 2.85 ± 0.075 |
| VRNFKEAAKLLVDSLAT [RPN7] | 2.23 ± 0.18 |  |  |  |
| TIVNDSNYDWLFQLLNA [RPN9] | 2.34 ± 0.074 | 2.58 ± 0.077 | 2.34 ± 0.078 | 2.61 ± 0.048 |
| NDLVKARDLLDDLEKTL [RPN9] | 2.97 ± 0.092 | 3.43 ± 0.097 | 3.12 ± 0.091 | 3.15 ± 0.087 |
| SKNAQFICTTFRTDMLQ [SMC3] | 2.11 ± 0.074 | 1.49 ± 0.075 | 1.5 ± 0.13 | 1.05 ± 0.073 |
| KEFDETIFNLPKNKLVP [FAS1] | 3.5 ± 0.17 | 3.39 ± 0.18 | 3.59 ± 0.085 | 3.07 ± 0.2 |
| QNSYADKVTSQAVNNLI [RPP1] | 1.82 ± 0.047 | 1.93 ± 0.09 | 1.68 ± 0.099 | 2.11 ± 0.068 |
| DICQIDTNAPVAATITS [SRB8] | 2.29 ± 0.063 | 2.45 ± 0.083 | 2.36 ± 0.096 | 2.26 ± 0.049 |
| DSFIEKIIPKDISATQL [ITC1] | 2.96 ± 0.1 | 3.17 ± 0.12 | 3.07 ± 0.086 | 3.13 ± 0.085 |
| LREVVELPLLSPERFAT [RPT1] | 2.13 ± 0.084 | 2.54 ± 0.07 | 2.47 ± 0.1 | 2.33 ± 0.11 |
| KNLVKVLESRVNARDIP [CSN12] |  | 1.94 ± 0.19 | 2.03 ± 0.2 | 1.76 ± 0.16 |
| MEMIENRTMDGKPVSLP [FAS1] | 3.38 ± 0.15 | 3.24 ± 0.22 | 2.75 ± 0.16 | 3.39 ± 0.096 |
| VLKSSVYEYVIASTLGP [RPC82] | 1.43 ± 0.085 | 1.53 ± 0.07 | 1.23 ± 0.11 | 1.43 ± 0.055 |
